Assay: Enzyme assay in vitro: formation of vanillin from isoeugenol by purified isoeugenol monooxygenase (HPLC)
Assay type: biochemical
Settings: 10 mM isoeugenol, pH 7.0, 30° C., 10 min
Experimental: The two purified isoeugenol monooxygenases were assayed by measuring the formation of vanillin in an enzymatic measuring mixture with isoeugenol as the substrate. The reaction mixture contained 10 mM isoeugenol, 100 mM potassium phosphate buffer (pH 7.0), 10% (v/v) ethanol and an appropriate amount of enzyme, in a total volume of 1 ml. The reaction was started, by adding isoeugenol as ethanol solution, carried out at 30° C. for 10 min with reciprocal shaking (160 strokes min^−1) and stopped with 1 ml of methanol. After centrifugation at 21,500, the supernatant was analyzed by HPLC for the determination of isoeugenol, vanillin, and vanillyl alcohol. CfIEM enzyme treated in boiling water for 5 minutes was used as the negative control.
As expected, no vanillin was produced with the negative control (lower panel).

B1: CfIEM: isoeugenol monooxygenase from the fungus Colletotrichum fioriniae PJ7, 539 amino acids (SEQ ID NO: 2) (protein, listed as Colletotrichum fioriniae)
chain: MAPGRTDDEAAEVATSSKTHAISNYGLTTKWPEAYDLAGSNLPCRLEGEIGDLVVLGEIPKEIDGTFYRVMTDPFVPPHPNNVPLDGDGNISAFRIKDGRVDMKMRYVETERYKLERKANKALFGLYRNPFTHHPCVRAAVDSTANTNVVLWADHFLALKEGGLPYSVDPQTLETIKYDPFGQIKAKTFTAHPKIDPYTNELVVFGYEARGLASLDIVIYALDSNGVKHDEQWIKSPWCAPIHDCAITPNWIILALWPFEASVDRMKKGGHHWAWDYDLPATFIVAPRRSSTKLPPGWQPGESRVYSWKNCMLIHTGGAWESEDGQTLFMETTRVHDNGFPFFPTNEGVYPAPDPKSDYVRWTFDLSQPTNSKVPDPEIILDMPAEFPRLDERFLSKSYNYVWINVYIHEDQNGDGHTIVEGLNGLAMHNSKTKETKCFNAGAESFCQEPIFIPRSDDAPEGDGWVMTMVERRGANRNEIVVLDTKDFEKPIAVIQLPFHVKAQVHGNWVDQRRLKAWQKLARDAVPEPISGQGALEPL
With B1 as the molecule, how does the activity toward isoeugenol read?
The activity toward isoeugenol was “high activity”.

And the “conversion of added isoeugenol to vanillin (HPLC)” value?
Its value is “Almost all isoeugenol added to the reaction mixture was converted to vanillin”.

From patent US20220112526A1, “BIOSYNTHESIS OF VANILLIN FROM ISOEUGENOL” (Conagen Inc., priority 2019, published 2022)
